This assay has as its target T1, His6-tagged hIL-21Rα extracellular domain (human, UniProt Q9HBE5 20-232).
T1 construct: extracellular domain; also called His6-tagged receptor EC domain; hIL-21Rα chain; not shown: His6 tag
As to the kind of experiment: ALPHAScreen competition against biotinylated hIL-21 HA.

This is an account of results in US20120107267A1 (Novo Nordisk, published 2012).

T1 sequence (Q9HBE5 20-232): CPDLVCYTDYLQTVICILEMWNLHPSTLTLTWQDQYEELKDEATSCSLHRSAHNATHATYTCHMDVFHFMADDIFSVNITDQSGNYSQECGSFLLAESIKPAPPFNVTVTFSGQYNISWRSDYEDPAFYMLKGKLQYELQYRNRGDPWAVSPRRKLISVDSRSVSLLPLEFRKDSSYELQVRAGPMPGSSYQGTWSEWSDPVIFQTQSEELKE

B1: hIL-21 HA triple mutant [Q116D, H120D, L123D] (ligand)
chain: QGQDRHMIRMRQLIDIVDQLKNYVNDLVPEFLPAPEDVETNCEWSAFSCFQKAQLKSANTGNNERIINVSIKKLKRKPPSTNAGRRQKHRLTCPSCDSYEKKPPKEFLERFKSLLDKMIDQHDSSRTHGSEDSYPYDVPDYA
notes: Made by site-directed mutagenesis of the pcDNA3.1(+)/hIL-21HA plasmid and expressed in HEK293 cells
B1: the binding result is recorded as “binds”.
